PMC8155463

Target: ZF-AS, fusion protein containing ZF5.3 and human argininosuccinate synthetase (human)
Assay: SEC

stoichiometry N: 4
Substance: ZF-AS, fusion protein containing ZF5.3 and human argininosuccinate synthetase (enzyme)
